Experimental data taken from patent publication US20220372098A1 (Johns Hopkins, published 2022).

How the values were obtained:
[1] = molecular target: T1, biotinylated human IL-2 with C-terminal biotin acceptor peptide (human, UniProt P60568 21-153, biotinylated with BirA ligase on the C-terminal biotin acceptor peptide); assay: bio-layer interferometry (Octet), equilibrium titration on immobilized hIL-2
T1 construct: Immobilized on streptavidin tips in BLI and used as the soluble labelled ligand in the yeast display assays; also called biotinylated hIL-2; immobilized hIL-2

[2] = molecular target: T1, biotinylated human IL-2 with C-terminal …; assay: flow cytometry on yeast displaying the scFv, 5 nM soluble biotinylated IL-2 co-incubated with soluble IL-2Rα
Procedure: (§1) Cells were then washed and stained with a 1:200 dilution of AlexaFluor 647-complexed streptavidin (Thermo Fisher Scientific) in PBSA for 15 minutes at 4° C. After a final wash, cells were analyzed for target binding using a CytoFLEX flow cytometer (Beckman Coulter). Background-subtracted and normalized binding curves were fitted to a first-order binding model and equilibrium dissociation constant (KD) values were determined using GraphPad Prism software.

[3] = molecular target: T1, biotinylated human IL-2 with C-terminal …; assay: flow cytometry, titration of soluble biotinylated IL-2 on yeast displaying the scFv, streptavidin-AF647 detection
Procedure: as §1

[4] = molecular target: T1, biotinylated human IL-2 with C-terminal …; assay: flow cytometry competition: soluble IL-2Rα titrated against 10 nM biotinylated IL-2; competitor is the yeast-displayed 602 scFv
[5] = molecular target: T1, biotinylated human IL-2 with C-terminal …; assay: flow cytometry competition: soluble IL-2Rα titrated against 5 nM biotinylated IL-2; competitor is the yeast-displayed F10 scFv

B1: recombinant 602 antibody (anti-human IL-2), mouse IgG2a kappa (antibody, V domains shown)
VH: EVQLQESGPGLVAPSQSLSITCTVSGFSLTNYDISWIRQPPGKGLEWLGVIWTGGGTNYNSGFMSRLSITKDNSKSQVFLKMNSLQTDDTAIYYCVRQGRTPYWGQGTLVTVSA
VL: DIQVTQSPSSLSVSLGDRVTITCKASKDIYNRLAWYQQKPGNAPRLLISGATSLETGVPSRFSGSGSGKDYTLTITSLQTEDVATYYCQQFWGTPYTFGGGTKLEIKR
notes: They are built here from the component entries so that the signal peptides are left out; also called MAB602
- Kd [1]: 3.5 nM

B2: yeast-displayed F10 single-chain variable fragment (variant of the 602 scFv) (scFv)
scFv: EVQLQESGPGLVAPSQSLSITCTVSGFSLTNYDISWIRQPPGKGLEWLGVIWTGGGTNYNSGFMSRLSITKDNSKSQVFLKMNSLQTDDTAIYYCVRQGRSPYWGQGTLVTVSAGGGGSGGGGSGGGGSDIQVTQSPSSLSVSLGDRVTITCKASKDIYNRLAWYQQKPGNAPRLLISGATSLETGVPSRFSGSGSGKDYTLTITSLQTEDVATYYCQQSWDTPYTFGGGTKLEIK
notes: also called F10 scFv; evolved F10 scFv; not shown: N-terminal Aga2, (G4S)3 linker, 3C and factor Xa cleavage sites; C-terminal c-Myc tag
- binding result [2]: binds

B3: yeast-displayed 602 single-chain variable fragment (VH-(G4S)3-VL, fused to Aga2) (scFv)
scFv: EVQLQESGPGLVAPSQSLSITCTVSGFSLTNYDISWIRQPPGKGLEWLGVIWTGGGTNYNSGFMSRLSITKDNSKSQVFLKMNSLQTDDTAIYYCVRQGRTPYWGQGTLVTVSAGGGGSGGGGSGGGGSDIQVTQSPSSLSVSLGDRVTITCKASKDIYNRLAWYQQKPGNAPRLLISGATSLETGVPSRFSGSGSGKDYTLTITSLQTEDVATYYCQQFWGTPYTFGGGTKLEIK
notes: not shown: N-terminal Aga2, (G4S)3 linker, 3C and factor Xa cleavage sites; C-terminal c-Myc tag
- EC50 (read off the curve) [3]: ~10 nM

B4: human IL-2Rα extracellular domain, soluble, with C-terminal hexahistidine tag (receptor)
chain: ELCDDDPPEIPHATFKAMAYKEGTMLNCECKRGFRRIKSGSLYMLCTGNSSHSSWDNQCQCTSSATRNTTKQVTPQPEEQKERKTTEMQSPMQPVDQASLPGHCREPPPWENEATERIYHFVVGQMVYYQCVQGYRALHRGPAESVCKMTHGKTRWTQPQLICTGEMETSQFPGEEKPQASPEGRPESETSCLVTTTDFQIQTEMAATMETSIFTTEYQHHHHHH
notes: extracellular domain; also called soluble IL-2Rα
- IC50 (read off the curve) [4]: ~60 nM
- IC50 (read off the curve) [5]: ~300 nM
